Laboratory results as given in patent publication US7638324 (BURNHAM INSTITUTE FOR MEDICAL RESEARCH, dated 2009).

T1: Bcl-GS (yeast two-hybrid construct) (human, UniProt Q9BZR8 1-241)
T1 construct: Used in yeast two-hybrid assays
T1 sequence: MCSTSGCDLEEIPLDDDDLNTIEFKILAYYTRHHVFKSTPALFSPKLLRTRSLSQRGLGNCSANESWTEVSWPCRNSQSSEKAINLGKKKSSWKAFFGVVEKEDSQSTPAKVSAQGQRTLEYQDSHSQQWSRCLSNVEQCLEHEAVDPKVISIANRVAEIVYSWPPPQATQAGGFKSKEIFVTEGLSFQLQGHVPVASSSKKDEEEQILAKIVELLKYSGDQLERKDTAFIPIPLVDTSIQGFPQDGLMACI


Assays:
GFP-Bcl-GS = target: T2, GFP-Bcl-GS (human, UniProt P42212 1-238 = GFP, limits assumed); assay: co-immunoprecipitation from lysates of transiently transfected cells
T2 construct: Expressed by transient transfection and immunoprecipitated with polyclonal anti-GFP antibody; also called Bcl-G (short); wild-type Bcl-GS
Description: (§1) For co-immunoprecipitations and immunoblotting, immunoblotting was performed as described previously (Xu and Reed, supra., (1998); Zhang et al., supra., (2000)). For co-immunoprecipitations, cells were cultured in […] benzocarbonyl Valine Alanine Aspartate fluoromethyl-ketone (zVAD-fmk) to prevent apoptosis. Cells were suspended in lysis buffer (50 mM Tris-HCl, pH7.4; 150 mM NaCl; 20 mM EDTA; 50 mM NaF; 0.5% NP-40; 0.1 mM Na_3VO_4; 20 µg/ml Leupeptin; 20 µg/ml Aprotinin; 1 mM dithiothreitol (DTT); and 1 mM phenylmethylsulfonylfluoride (PMSF). Lysates (0.2 ml diluted into 1 ml final volume of lysis buffer) were cleared by incubation with 15 µl of protein G-Sepharose 4B (Zymed; South San Francisco Calif.) and then incubated with 15 µl of polyclonal anti-GFP antibody (Santa Cruz; Santa Cruz Calif.) and 15 µl of protein G at 4° C. overnight. Beads were then washed 4 times with 1.5 mls lysis buffer before boiling in Laemmli sample buffer and performing SDS-PAGE/immunoblotting.

[1] = target: T1, Bcl-GS (yeast two-hybrid construct); assay: yeast two-hybrid
Bcl-XL = Bcl-XL (UniProt Q07817 1-233); assay: co-immunoprecipitation with anti-GFP antibody, anti-Bcl-XL immunoblot
Sequence of Bcl-XL (Q07817 whole entry): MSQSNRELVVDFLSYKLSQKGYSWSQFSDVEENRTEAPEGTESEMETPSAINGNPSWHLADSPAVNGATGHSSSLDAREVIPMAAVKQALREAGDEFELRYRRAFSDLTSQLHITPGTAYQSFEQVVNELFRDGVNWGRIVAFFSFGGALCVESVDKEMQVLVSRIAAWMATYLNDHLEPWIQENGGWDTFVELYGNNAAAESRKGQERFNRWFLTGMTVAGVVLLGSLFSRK
Description: as §1

Row | Binder | binding result (GFP-Bcl-GS) | binding result [1] | binding result (Bcl-XL)
1 | Bak (other, UniProt Q16611 1-211, looked up) MASGQGPGPPRQECGEPALPSASEEQVAQDTEEVFRSYVFYRHQQEQEAEGVAAPADPEMVTLPLQPSSTMGQVGRQLAIIGDDINRRYDSEFQTMLQHLQPTAENAYEYFTKIATSLFESGINWGRVVALLGFGYRLALHVYQHGLTGFLGQVTRFVVDFMLHHCIARWIAQRGGWVAALNLGNGPILNVLVVLGVVLLGQFVVRRFFKS | no binding | no binding | –
2 | GFP-Bcl-GS (ΔBH3) (other, The limits of the deletion would have to be derived from the primers; they are not guessed here; also called GFP-Bcl-GS (DBH3); mutant of Bcl-GS lacking the BH3 domain; not shown: N-terminal EGFP and the short vector linker of pEGFP-C1 (Clontech)) MCSTSGCDLEEIPLDDDDLNTIEFKILAYYTRHHVFKSTPALFSPKLLRTRSLSQRGLGNCSANESWTEVSWPCRNSQSSEKAINLGKKKSSWKAFFGVVEKEDSQSTPAKVSAQGQRTLEYQDSHSQQWSRCLSNVEQCLEHEAVDPKVISIANRVAEIVYSWPPPQATQAGGFKSKEIFVTEGLSFQLQGHVPVASSSKKDEEEQILAGSDTAFIPIPLVDTSIQGFPQDGLMACI | – | – | no binding
3 | Bid (other, UniProt P55957 1-195, looked up) MDCEVNNGSSLRDECITNLLVFGFLQSCSDNSFRRELDALGHELPVLAPQWEGYDELQTDGNRSSHSRLGRIEADSESQEDIIRNIARHLAQVGDSMDRSIPPGLVNGLALQLRNTSRSEEDRNRDLATALEQLLQAYPRDMEKEKTMLVLALLLAKKVASHTPSLLRDVFHTTVNFINQNLRTYVRSLARNGMD | no binding | – | –
4 | Bad (other, UniProt Q92934 1-168, looked up) MFQIPEFEPSEQEDSSSAERGLGPSPAGDGPSGSGKHHRQAPGLLWDASHQQEQPTSSSHHGGAGAVEIRSRHSSYPAGTEDDEGMGEEPSPFRGRSRSAPPNLWAAQRYGRELRRMSDEFVDSFKKGLPRPKSAGTATQMRQSSSWTRVFQSWWDRNLGRGSSAPSQ | no binding | – | –
